Publication PMC11601603

Molecular target: Citrobacter sp. RHBSTW-00271 Ubl3 (Citrobacter sp. RHBSTW-00271)
Test: SEC-MALS

stoichiometry N: 2
Substance: Citrobacter sp. RHBSTW-00271 Ubl3 (domain or fragment)
